The values that follow come from patent publication US20240216513A1, “FATTY ACID-BIFUNCTIONAL DEGRADER CONJUGATES AND THEIR METHODS OF USE” (Novartis AG, priority 2021, published 2024).

Data set [1] in a line: BTK FAC plasma stability assay, PBS buffer arm. The format is physicochemical. The settings on record: for Plasma stability (h) PBS: incubation to 24 h. The gist of the method: (§1)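 Compound from a 500 µM acetonitrile:water working solution was spiked into K3-EDTA plasma or Dulbecco's PBS and incubated with shaking at 38 °C. Samples taken at 0, 2, 6 and 24 h were precipitated with cold acetonitrile containing glyburide internal standard. Semi-quantitative LC-MS/MS used analyte:internal standard peak area ratios.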

A short description of data set [2]: BTK FAC plasma stability assay, mouse plasma. In kind it is in vitro ADME. The settings on record: for Plasma stability (h) mouse: incubation to 24 h. The gist of the method:
as §1

The nature of data set [3]: BTK FAC plasma stability assay, rat plasma. In kind it is in vitro ADME. The settings on record: for Plasma stability (h) rat: incubation to 24 h. In outline: as §1
Data set [4] in a line: BTK FAC plasma stability assay, dog plasma. The format is in vitro ADME.
Data set [5] addresses T1, BTK C481S (Homo sapiens, UniProt Q06187, C481S).
T1 construct: endogenous in cells; host or cells: TMD8 BTK C481S mutant tumour xenografts in mice
Briefly: PD screen in TMD8 BTK C481S mutant tumor-bearing mice, BTK levels and compound concentrations in blood and tumor. In kind it is in vivo, mouse. The settings on record: 25 umol/kg. As for the experimental part: All animal studies were conducted in accordance with ethics and procedures covered by permit nos. BS-1975 issued by the Kantonales Veterinäramt Basel-Stadt and in strict adherence to guidelines of the Eidgenössisches Tierschutzgesetz and the Eidgenössische Tierschutzverordnung, Switzerland. All animals had access to food and water ad libitum and were identified with transponders. They were housed in a specific pathogen-free facility with a 12-h light/12-h dark cycle. For PD screen experiments in TMD8 BTK C481S mutant tumor-bearing mice, FAC was injected once. Animals were randomized into groups of 2 and tissue samples collected at day 0, 4, 7 and in some studies day 10 as well. Blood samples were collected and tumors were excised, weighed, frozen in liquid nitrogen and cryogenic dry pulverized with the CryoPrep™ system (model CP-02, Covaris). Concentrations of compounds in blood and tumors were determined by UPLC/MS-MS and BTK levels were analyzed by Meso Scale Discovery.

Data set [6] is described as follows: BTK FAC plasma stability assay, cyno plasma. In kind it is in vitro ADME, cynomolgus monkey.

T1 sequence (Q06187 whole entry C481S): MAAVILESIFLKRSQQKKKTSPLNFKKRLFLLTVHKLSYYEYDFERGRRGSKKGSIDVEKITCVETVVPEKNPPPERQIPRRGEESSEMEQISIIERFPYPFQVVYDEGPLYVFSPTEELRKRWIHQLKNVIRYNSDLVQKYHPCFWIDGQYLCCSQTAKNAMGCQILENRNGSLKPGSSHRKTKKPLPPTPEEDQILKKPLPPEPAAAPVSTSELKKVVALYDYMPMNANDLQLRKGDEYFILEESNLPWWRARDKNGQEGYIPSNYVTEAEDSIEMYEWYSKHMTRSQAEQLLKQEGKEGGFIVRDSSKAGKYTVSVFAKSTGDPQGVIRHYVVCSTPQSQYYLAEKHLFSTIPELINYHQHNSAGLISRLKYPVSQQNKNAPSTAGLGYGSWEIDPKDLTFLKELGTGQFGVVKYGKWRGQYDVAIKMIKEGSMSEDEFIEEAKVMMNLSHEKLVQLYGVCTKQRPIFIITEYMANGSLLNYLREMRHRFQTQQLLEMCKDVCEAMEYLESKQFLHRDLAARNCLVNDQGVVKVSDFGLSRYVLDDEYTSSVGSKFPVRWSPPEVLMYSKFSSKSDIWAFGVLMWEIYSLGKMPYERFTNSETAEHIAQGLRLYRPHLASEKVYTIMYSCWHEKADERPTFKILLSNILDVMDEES

For `CCCCCCCCCCCN(C(=O)CCCCCCCCCC(=O)O)C(CCC(=O)NCCOCCOCCOCCOCCOCCOCCOCCOCCOCCOCCOCCOCCC(=O)NCC(=O)NCN(C(=O)c1ccc(C(C)(C)O)cc1F)c1cc(F)cc(-c2ncnc3[nH]c(-c4ccc(CCN5CCC6(CC5)CCN(C(=O)c5ccc(OC)c(N7CCC(=O)NC7=O)c5)CC6)cc4)cc23)c1C)C(=O)O` (stereo not drawn) [Example A36, 51-Carboxy-2-(3-(6-(4-(2-(9-(3-(2,4-dioxotetrahydropyrimidin-1(2H)-yl)-4-methoxybenzoyl)-3,9-diazaspiro[5.5]undecan-3-yl)ethyl)phenyl)-7H-pyrrolo[2,3-d]pyrimidin-4-yl)-5-fluoro-2-methylphenyl)-1-(2-fluoro-4-(2-hydroxypropan-2-yl)phenyl)-1,5,8,48,53-pentaoxo-52-undecyl-11,14,17,20,23,26,29,32,35,38,41,44-dodecaoxa-2,4,7,47,52-pentaazatrihexacontan-63-oic acid], in data set [1], the “% Release of degrader after 24 h PBS” value was 0% and the “Plasma stability (h) PBS” value is above 48 h. For the same compound, in data set [2], the “% Release of degrader after 24 h mouse” value is 0.7% and the “Plasma stability (h) mouse” value came out at 38.6 h. Besides, in data set [3], the “% Release of degrader after 24 h rat” value was 0% and the “Plasma stability (h) rat” value is given as above 48 h. Besides, in data set [4], the “Plasma stability (h) dog” value is recorded as above 48 h and the “% Release of degrader after 24 h dog” value is listed as 0%. In addition, the “Duration of BTK degradation in mouse ≥90%” value (shortened to “Duration … in mouse ≥90%”) in data set [5] (i.v.) amounted to 10 days.
Consider `CCCCCCCCCCCN(C(=O)CCCCCCCCCC(=O)O)C(CCC(=O)NCCOCCOCCOCCOCCOCCOCCOCCOCCOCCOCCOCCOCCC(=O)N[C@@H](C)C(=O)OC(C)(C)c1ccc(C(=O)Nc2cc(F)cc(-c3ncnc4[nH]c(-c5ccc(CCN6CCC7(CC6)CCN(C(=O)c6ccc(OC)c(N8CCC(=O)NC8=O)c6)CC7)cc5)cc34)c2C)c(F)c1)C(=O)O` (stereo partly drawn) [Example A16, (5S)-50-Carboxy-2-(4-((3-(6-(4-(2-(9-(3-(2,4-dioxotetrahydropyrimidin-1(2H)-yl)-4-methoxybenzoyl)-3,9-diazaspiro[5.5]undecan-3-yl)ethyl)phenyl)-7H-pyrrolo[2,3-d]pyrimidin-4-yl)-5-fluoro-2-methylphenyl)carbamoyl)-3-fluorophenyl)-2,5-dimethyl-4,7,47,52-tetraoxo-51-undecyl-3,10,13,16,19,22,25,28,31,34,37,40,43-tridecaoxa-6,46,51-triazadohexacontan-62-oic acid], for which, in data set [1], the “% Release of degrader after 24 h PBS” value came to 2% and the “Plasma stability (h) PBS” value was above 48 h. In data set [2], the “% Release of degrader after 24 h mouse” value was found to be 1.9% and the “Plasma stability (h) mouse” value is reported as above 48 h. Besides, in data set [3], the “% Release of degrader after 24 h rat” value was 11% and the “Plasma stability (h) rat” value is above 48 h. Further, in data set [4], the “Plasma stability (h) dog” value was 31.2 h and the “% Release of degrader after 24 h dog” value was found to be 5%. In addition, the “Duration … in mouse ≥90%” value in data set [5] (i.v.) turned out to be 4 days.
As for `CCCCCCCCCCCN(C(=O)CCCCCCCCCC(=O)O)[C@@H](CCC(=O)NCCOCCOCCOCCOCCOCCOCCOCCOCCOCCOCCOCCOCCC(=O)N(CCC(=O)OC(C)(C)c1ccc(C(=O)Nc2cc(F)cc(-c3ncnc4[nH]c(-c5ccc(CCN6CCC7(CC6)CCN(C(=O)c6ccc(OC)c(N8CCC(=O)NC8=O)c6)CC7)cc5)cc34)c2C)c(F)c1)CC(=O)O)C(=O)O` [Example A24, (S)-2-(3-((2-(4-((3-(6-(4-(2-(9-(3-(2,4-Dioxotetrahydropyrimidin-1(2H)-yl)-4-methoxybenzoyl)-3,9-diazaspiro[5.5]undecan-3-yl)ethyl)phenyl)-7H-pyrrolo[2,3-d]pyrimidin-4-yl)-5-fluoro-2-methylphenyl)carbamoyl)-3-fluorophenyl)propan-2-yl)oxy)-3-oxopropyl)-3,43,48-trioxo-47-undecyl-6,9,12,15,18,21,24,27,30,33,36,39-dodecaoxa-2,42,47-triazaheptapentacontane-1,46,57-tricarboxylic acid], in data set [1], the “% Release of degrader after 24 h PBS” value is given as 2.8% and the “Plasma stability (h) PBS” value was above 48 h. In addition, in data set [2], the “% Release of degrader after 24 h mouse” value was 7.4% and the “Plasma stability (h) mouse” value was above 48 h. Further, in data set [3], the “% Release of degrader after 24 h rat” value is reported as 7.2% and the “Plasma stability (h) rat” value is reported as above 48 h. Moreover, in data set [4], the “Plasma stability (h) dog” value is above 48 h and the “% Release of degrader after 24 h dog” value was 5.9%. Further, the “Duration … in mouse ≥90%” value in data set [5] (i.v.) worked out at 10 days. In addition, the “Duration … in mouse ≥90%” value in data set [5] (s.c.) worked out at 10 days.
As for `COc1ccc(C(=O)N2CCC3(CCN(CCc4ccc(-c5cc6c(-c7cc(F)cc(NC(=O)c8ccc(C(C)(C)OC(=O)CNC(=O)CCOCCOCCOCCOCCOCCOCCOCCOCCOCCOCCOCCOCCNC(C)=O)cc8F)c7C)ncnc6[nH]5)cc4)CC3)CC2)cc1N1CCC(=O)NC1=O` [Example A33, 2-(4-((3-(6-(4-(2-(9-(3-(2,4-Dioxotetrahydropyrimidin-1(2H)-yl)-4-methoxybenzoyl)-3,9-diazaspiro[5.5]undecan-3-yl)ethyl)phenyl)-7H-pyrrolo[2,3-d]pyrimidin-4-yl)-5-fluoro-2-methylphenyl)carbamoyl)-3-fluorophenyl)propan-2-yl (2-oxo-6,9,12,15,18,21,24,27,30,33,36,39-dodecaoxa-3-azadotetracontan-42-oyl)glycinate], in data set [1], the “% Release of degrader after 24 h PBS” value came out at 4.8% and the “Plasma stability (h) PBS” value is above 48 h. Besides, in data set [2], the “% Release of degrader after 24 h mouse” value came to 27.7% and the “Plasma stability (h) mouse” value was 5.1 h. Moreover, in data set [3], the “% Release of degrader after 24 h rat” value amounted to 16.7% and the “Plasma stability (h) rat” value is reported as 2.3 h. For the same compound, in data set [4], the “Plasma stability (h) dog” value was found to be 32 h and the “% Release of degrader after 24 h dog” value was 10.4%. Also, in data set [6], the “Plasma stability (h) cyno” value stood at 45.7 h and the “% Release of degrader after 24 h cyno” value is 8.1%.
In the case of `CCCCCCCCCCCN(C(=O)CCCCCCCCCC(=O)O)C(CCC(=O)NCCOCCOCCOCCOCCOCCOCCOCCOCCOCCOCCOCCOCCC(=O)NCc1ccc(C(=O)OC(C)(C)c2ccc(C(=O)Nc3cc(F)cc(-c4ncnc5[nH]c(-c6ccc(CCN7CCC8(CC7)CCN(C(=O)c7ccc(OC)c(N9CCC(=O)NC9=O)c7)CC8)cc6)cc45)c3C)c(F)c2)cc1)C(=O)O` (stereo not drawn) [Example A14, 46-Carboxy-1-(4-(((2-(4-((3-(6-(4-(2-(9-(3-(2,4-dioxotetrahydropyrimidin-1(2H)-yl)-4-methoxybenzoyl)-3,9-diazaspiro[5.5]undecan-3-yl)ethyl)phenyl)-7H-pyrrolo[2,3-d]pyrimidin-4-yl)-5-fluoro-2-methylphenyl)carbamoyl)-3-fluorophenyl)propan-2-yl)oxy)carbonyl)phenyl)-3,43,48-trioxo-47-undecyl-6,9,12,15,18,21,24,27,30,33,36,39-dodecaoxa-2,42,47-triazaoctapentacontan-58-oic acid], in data set [1], the “% Release of degrader after 24 h PBS” value worked out at 0.2% and the “Plasma stability (h) PBS” value is listed as above 48 h. Also, in data set [2], the “% Release of degrader after 24 h mouse” value was found to be 9.5% and the “Plasma stability (h) mouse” value was above 48 h. Further, in data set [3], the “% Release of degrader after 24 h rat” value turned out to be 0.3% and the “Plasma stability (h) rat” value is above 48 h. In data set [4], the “Plasma stability (h) dog” value is above 48 h and the “% Release of degrader after 24 h dog” value was 0.1%. Besides, in data set [6], the “Plasma stability (h) cyno” value is recorded as above 48 h and the “% Release of degrader after 24 h cyno” value was 0.2%.
